Results from US20240325557A1, “TREATMENT OF CANCER” (INNATE PHARMA, priority 2020, published 2024).

Experiments:
[1] = tested on: Nectin-4 Mutant 5 (A158P/E160G/S243A/F244S); assay: Binding to cell surface expressed Nectin-4 point mutant; parameters: species or system human; conditions: HEK-293T; results irrelevant, due to an absence of expression of said protein
Description: (§1) Combined with the published structures of the Nectin-4 domains, Nectin-4 mutations at surface exposed amino acids residues were designed. Nectin-4 domain structure was modelled based on Protein Data Bank reference: 4FRW (domains V et C1). Human Nectin-4 used was NCBI Reference Sequence: NP_112178.2, mouse Nectin-4 used was NCBI Reference Sequence: AAL79833.1, cynomolgus Nectin-4 used was NCBI Reference Sequence: XP_005541277.1, rat Nectin-4 used was NCBI Reference Sequence: NP_001102546.1. The cells expressing the Nectin-4 mutants are then be used for testing anti-Nectin-4 antibodies for loss of binding to different Nectin-4 mutants to identify antibodies that bind to the same site on Nectin-4. […] FIGS. 12A and 12B show a molecular model of the human Nectin-4 protein, indicating the position of substituted residues in mutants 7 (12A) and in mutants 7bis (12B); these mutants are in the C1 domain identify two sites at the junction of domain C1 and V domain that are on opposing faces of the Nectin-4 protein.
(§2) Nectin-4 mutants were generated by PCR. The sequences amplified were run on agarose gel and purified using the Macherey Nagel PCR Clean-Up Gel Extraction kit. The purified PCR products generated for each mutant were then ligated into an expression vector, with the ClonTech InFusion system. The vectors containing the mutated sequences were prepared as Miniprep and sequenced. After sequencing, the vectors containing the mutated sequences were prepared as Midiprep using the Promega PureYield™ Plasmid Midiprep System. HEK293T cells were grown in DMEM medium (Invitrogen), transfected with vectors using Invitrogen's Lipofectamine 2000 and incubated at 37° C. in a CO2 incubator for 48 hours prior to testing for transgene expression. The targeted amino acid mutations are shown in Table 2 below, listing the residue present in wild-type Nectin-4/position of residue/residue present in mutant Nectin-4, with position reference being to the Nectin-4 protein with leader peptide shown in SEQ ID NO: 1.

[2] = Binding to HEK-293T cells, negative control of the point mutant test; parameters: species or system human
Experimental: as §2

[3] = molecular target: T1, Nectin-4 Mutant 8 (T190A/T191Q/S193A) (Homo sapiens, UniProt Q96NY8, S193A/T190A/T191Q); assay: Binding to cell surface expressed Nectin-4 point mutant; conditions: HEK-293T
T1 construct: expressed in transfected cells; host or cells: HEK293T
T1 sequence (Q96NY8 32-510 T190A/T191Q/S193A): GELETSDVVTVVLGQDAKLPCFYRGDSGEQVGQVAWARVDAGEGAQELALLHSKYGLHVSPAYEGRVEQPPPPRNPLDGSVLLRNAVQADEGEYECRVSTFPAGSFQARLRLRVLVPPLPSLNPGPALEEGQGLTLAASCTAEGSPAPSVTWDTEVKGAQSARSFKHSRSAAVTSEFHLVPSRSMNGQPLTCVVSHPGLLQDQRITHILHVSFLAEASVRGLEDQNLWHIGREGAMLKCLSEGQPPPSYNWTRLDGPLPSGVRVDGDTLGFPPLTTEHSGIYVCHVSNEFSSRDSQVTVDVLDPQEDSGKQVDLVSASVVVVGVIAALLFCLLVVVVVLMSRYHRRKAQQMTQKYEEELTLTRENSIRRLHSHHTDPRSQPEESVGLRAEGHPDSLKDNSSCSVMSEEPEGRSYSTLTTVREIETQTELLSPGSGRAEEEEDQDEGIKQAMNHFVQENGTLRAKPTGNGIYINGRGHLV
Description: as §1, §2

[4] = molecular target: T2, Nectin-4 Mutant 4 (A72P/G73N/G75S) (Homo sapiens, UniProt Q96NY8, A72P/G73N/G75S); assay: as above; conditions: HEK-293T
T2 construct: expressed in transfected cells; host or cells: HEK293T
T2 sequence (Q96NY8 32-510 A72P/G73N/G75S): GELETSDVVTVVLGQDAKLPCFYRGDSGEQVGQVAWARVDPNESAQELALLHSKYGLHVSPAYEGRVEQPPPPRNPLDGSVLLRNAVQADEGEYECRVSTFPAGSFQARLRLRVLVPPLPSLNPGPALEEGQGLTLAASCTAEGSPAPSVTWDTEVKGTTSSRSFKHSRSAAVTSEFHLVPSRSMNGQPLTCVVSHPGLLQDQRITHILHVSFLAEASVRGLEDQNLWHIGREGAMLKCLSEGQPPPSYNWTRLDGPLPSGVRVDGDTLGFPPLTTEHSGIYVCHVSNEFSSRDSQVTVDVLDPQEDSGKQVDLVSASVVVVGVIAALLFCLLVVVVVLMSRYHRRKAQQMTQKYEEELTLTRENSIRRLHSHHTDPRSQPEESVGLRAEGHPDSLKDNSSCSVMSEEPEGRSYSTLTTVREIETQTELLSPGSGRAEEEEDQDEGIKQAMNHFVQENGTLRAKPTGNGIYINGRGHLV
Description: as §1, §2

[5] = molecular target: T3, Nectin-4 Mutant 6 (H238A/I239T/H241Q) (Homo sapiens, UniProt Q96NY8, H238A/H241Q/I239T); assay: as above; conditions: HEK-293T
T3 construct: expressed in transfected cells; host or cells: HEK293T
T3 sequence (Q96NY8 32-510 H238A/I239T/H241Q): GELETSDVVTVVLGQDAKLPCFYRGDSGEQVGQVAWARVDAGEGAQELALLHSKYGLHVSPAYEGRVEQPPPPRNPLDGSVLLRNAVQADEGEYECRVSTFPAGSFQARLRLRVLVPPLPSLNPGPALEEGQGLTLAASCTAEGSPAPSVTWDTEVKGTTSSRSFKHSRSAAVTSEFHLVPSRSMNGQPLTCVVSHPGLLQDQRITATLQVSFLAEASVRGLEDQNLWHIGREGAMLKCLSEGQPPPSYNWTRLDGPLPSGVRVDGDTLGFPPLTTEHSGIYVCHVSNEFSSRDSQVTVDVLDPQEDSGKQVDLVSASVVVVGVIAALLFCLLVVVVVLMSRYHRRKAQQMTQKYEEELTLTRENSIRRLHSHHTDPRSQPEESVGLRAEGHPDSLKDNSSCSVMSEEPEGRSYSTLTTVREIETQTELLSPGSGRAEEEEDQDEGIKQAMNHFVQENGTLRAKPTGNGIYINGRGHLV
Description: as §1, §2

B1: N41 (antibody, V domains shown)
VH: QVQLKQSGPGLVQPSQSLSITCTVSGFSLTNYGVHWVRQSPGKGLEWLGVIWSGGSTDYNAAFISRLSISKDTSKSQVFFKMNSLQADDTAIYYCARELIHAMDNWGQGTSVTVSS
VL: DIQMTQSPASLSVSVGETVTITCRASENIYSNLAWYQQKQGNSPQLLVFAATNLADGVPSRFSGSGSGTQYSLKINSLQSEDFGTYYCQHFWGTPTFGGGTKLEIK
association with Nectin-4 Mutant 5 [1]: −
association, EXPI medium (negative control) [2]: −
association with Nectin-4 Mutant 8 [3]: +
association with Nectin-4 Mutant 4 [4]: +
association with Nectin-4 Mutant 6 [5]: +

B2: 5E7 (antibody, V domains shown)
VH: QVQLQQPGAELVKPGASVKLSCKASGYIFTSYWMHWVKQRPGQGLEWIGEIDPSDSYTNYNQKFKGKATLTLDKSSSTTYMQLSSLTSEDSAVYYCVRGYGNYGDYWGQGTTLTVSS
VL: DVVMTQAAFSNPVTLGTSASISCRSSKSLLHSNGITYLYWYLQKPGQSPQLLIYQMSNLASGVPDRFSSSGSGTDFTLRISRVEAEDVGVYYCAQNLELPWTFGGGTKLEIK
association with Nectin-4 Mutant 5 [1]: −
association, EXPI medium (negative control) [2]: −
association with Nectin-4 Mutant 8 [3]: +
association with Nectin-4 Mutant 4 [4]: +
association with Nectin-4 Mutant 6 [5]: +

B3: 10B12: anti-Nectin-4 antibody, VH SEQ ID NO: 24, VL SEQ ID NO: 25, binds junction of domain C1 and V (antibody, listed as Mus musculus, V domains shown)
VH: QVQLQQPGAELVKPGASVKLSCKASGYTFTSYWMHWVKQRPGQGLEWIGEIDPSDSYTNYNQKFKGKATLTVDKSSSTAYMQLSSLTSEDSAVYYCVRGYGNYGDYWGQGTTLTVSS
VL: DIVMTQAAFSNPVTLGTSASISCRSSKSLLHSNGITYLYWYLQKPGQSPQLLIYQMSNLASGVPDRFSSSGSGTDFTLRISRVEAEDVGVYYCAQNLELPWTFGGGTKLEIK
association with Nectin-4 Mutant 5 [1]: −
association, EXPI medium (negative control) [2]: −
association with Nectin-4 Mutant 8 [3]: +
association with Nectin-4 Mutant 4 [4]: +
association with Nectin-4 Mutant 6 [5]: +
